Reference: IntAct's records for PubMed 29892012

B1: Cell division cycle-associated 7-like protein (Homo sapiens), Q96GN5 (parent)
chain: MELATRYQIPKEVADIFNAPSDDEEFVGFRDDVPMETLSSEESCDSFDSLESGKQQDVRFHSKYFTEELRRIFIEDTDSETEDFAGFTQSDLNGKTNPEVMVVESDLSDDGKASLVSEEEEDEEEDKATPRRSRSRRSSIGLRVAFQFPTKKLANKPDKNSSSEQLFSSARLQNEKKTILERKKDCRQVIQREDSTSESEDDSRDESQESSDALLKRTMNIKENKAMLAQLLAELNSMPDFFPVRTPTSASRKKTVRRAFSEGQITRRMNPTRSARPPEKFALENFTVSAAKFAEEFYSFRRRKTIGGKCREYRRRHRISSFRPVEDITEEDLENVAITVRDKIYDKVLGNTCHQCRQKTIDTKTVCRNQGCCGVRGQFCGPCLRNRYGEDVRSALLDPDWVCPPCRGICNCSYCRKRDGRCATGILIHLAKFYGYDNVKEYLESLQKELVEDN
partner: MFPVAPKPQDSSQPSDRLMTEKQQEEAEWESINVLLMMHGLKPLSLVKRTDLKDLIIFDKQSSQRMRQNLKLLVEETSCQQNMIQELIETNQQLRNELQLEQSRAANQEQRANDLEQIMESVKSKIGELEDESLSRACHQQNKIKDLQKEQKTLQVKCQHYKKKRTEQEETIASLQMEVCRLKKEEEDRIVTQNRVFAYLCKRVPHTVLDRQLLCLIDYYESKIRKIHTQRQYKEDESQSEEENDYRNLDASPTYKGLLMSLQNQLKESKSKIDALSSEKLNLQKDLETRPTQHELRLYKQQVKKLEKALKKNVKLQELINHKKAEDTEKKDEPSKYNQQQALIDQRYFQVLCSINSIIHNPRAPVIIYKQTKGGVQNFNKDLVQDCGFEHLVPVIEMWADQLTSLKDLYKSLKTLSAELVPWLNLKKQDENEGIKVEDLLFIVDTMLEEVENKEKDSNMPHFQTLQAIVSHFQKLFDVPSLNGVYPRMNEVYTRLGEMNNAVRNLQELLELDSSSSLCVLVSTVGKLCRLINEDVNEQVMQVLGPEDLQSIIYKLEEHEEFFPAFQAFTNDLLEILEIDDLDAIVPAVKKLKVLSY
B2: E3 ubiquitin-protein ligase LNX (Homo sapiens), Q8TBB1 (parent)
chain: MNQPESANDPEPLCAVCGQAHSLEENHFYSYPEEVDDDLICHICLQALLDPLDTPCGHTYCTLCLTNFLVEKDFCPMDRKPLVLQHCKKSSILVNKLLNKLLVTCPFREHCTQVLQRCDLEHHFQTSCKGASHYGLTKDRKRRSQDGCPDGCASLTATAPSPEVSAAATISLMTDEPGLDNPAYVSSAEDGQPAISPVDSGRSNRTRARPFERSTIRSRSFKKINRALSVLRRTKSGSAVANHADQGRENSENTTAPEVFPRLYHLIPDGEITSIKINRVDPSESLSIRLVGGSETPLVHIIIQHIYRDGVIARDGRLLPGDIILKVNGMDISNVPHNYAVRLLRQPCQVLWLTVMREQKFRSRNNGQAPDAYRPRDDSFHVILNKSSPEEQLGIKLVRKVDEPGVFIFNVLDGGVAYRHGQLEENDRVLAINGHDLRYGSPESAAHLIQASERRVHLVVSRQVRQRSPDIFQEAGWNSNGSWSPGPGERSNTPKPLHPTITCHEKVVNIQKDPGESLGMTVAGGASHREWDLPIYVISVEPGGVISRDGRIKTGDILLNVDGVELTEVSRSEAVALLKRTSSSIVLKALEVKEYEPQEDCSSPAALDSNHNMAPPSDWSPSWVMWLELPRCLYNCKDIVLRRNTAGSLGFCIVGGYEEYNGNKPFFIKSIVEGTPAYNDGRIRCGDILLAVNGRSTSGMIHACLARLLKELKGRITLTIVSWPGTFL
partner: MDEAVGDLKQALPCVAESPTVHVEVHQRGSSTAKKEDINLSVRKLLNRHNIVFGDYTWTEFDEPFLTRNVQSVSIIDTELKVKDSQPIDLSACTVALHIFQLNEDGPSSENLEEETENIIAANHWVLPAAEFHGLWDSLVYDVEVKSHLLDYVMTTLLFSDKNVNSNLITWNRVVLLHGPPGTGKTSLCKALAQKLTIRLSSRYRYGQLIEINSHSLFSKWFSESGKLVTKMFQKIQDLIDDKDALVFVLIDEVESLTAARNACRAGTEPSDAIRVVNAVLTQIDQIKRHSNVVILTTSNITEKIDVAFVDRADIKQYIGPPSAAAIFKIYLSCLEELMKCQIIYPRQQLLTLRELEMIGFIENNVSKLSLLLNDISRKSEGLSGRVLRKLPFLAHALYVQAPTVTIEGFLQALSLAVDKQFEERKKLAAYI
B3: Transcription factor RFX3 (Homo sapiens), P48380 (parent)
chain: MQTSETGSDTGSTVTLQTSVASQAAVPTQVVQQVPVQQQVQQVQTVQQVQHVYPAQVQYVEGSDTVYTNGAIRTTTYPYTETQMYSQNTGGNYFDTQGSSAQVTTVVSSHSMVGTGGIQMGVTGGQLISSSGGTYLIGNSMENSGHSVTHTTRASPATIEMAIETLQKSDGLSTHRSSLLNSHLQWLLDNYETAEGVSLPRSTLYNHYLRHCQEHKLDPVNAASFGKLIRSIFMGLRTRRLGTRGNSKYHYYGIRVKPDSPLNRLQEDMQYMAMRQQPMQQKQRYKPMQKVDGVADGFTGSGQQTGTSVEQTVIAQSQHHQQFLDASRALPEFGEVEISSLPDGTTFEDIKSLQSLYREHCEAILDVVVNLQFSLIEKLWQTFWRYSPSTPTDGTTITESSNLSEIESRLPKAKLITLCKHESILKWMCNCDHGMYQALVEILIPDVLRPIPSALTQAIRNFAKSLEGWLSNAMNNIPQRMIQTKVAAVSAFAQTLRRYTSLNHLAQAARAVLQNTSQINQMLSDLNRVDFANVQEQASWVCQCDDNMVQRLETDFKMTLQQQSTLEQWAAWLDNVMMQALKPYEGRPSFPKAARQFLLKWSFYSSMVIRDLTLRSAASFGSFHLIRLLYDEYMFYLVEHRVAQATGETPIAVMGEFGDLNAVSPGNLDKDEGSEVESEMDEELDDSSEPQAKREKTELSQAFPVGCMQPVLETGVQPSLLNPIHSEHIVTSTQTIRQCSATGNTYTAV
partner: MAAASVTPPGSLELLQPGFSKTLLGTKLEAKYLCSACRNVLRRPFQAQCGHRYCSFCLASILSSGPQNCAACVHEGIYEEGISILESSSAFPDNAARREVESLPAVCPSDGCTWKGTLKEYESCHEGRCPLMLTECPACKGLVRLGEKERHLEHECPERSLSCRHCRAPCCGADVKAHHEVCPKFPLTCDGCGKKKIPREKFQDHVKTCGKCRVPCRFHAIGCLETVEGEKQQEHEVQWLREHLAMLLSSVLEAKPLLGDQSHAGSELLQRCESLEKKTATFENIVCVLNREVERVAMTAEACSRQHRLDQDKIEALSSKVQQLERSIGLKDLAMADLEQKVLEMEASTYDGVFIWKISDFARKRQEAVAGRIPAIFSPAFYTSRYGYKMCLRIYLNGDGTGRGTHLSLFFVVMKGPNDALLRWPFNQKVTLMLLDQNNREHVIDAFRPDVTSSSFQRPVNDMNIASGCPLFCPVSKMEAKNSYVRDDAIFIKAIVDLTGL
B4: E3 ubiquitin-protein ligase LNX (Homo sapiens), Q8TBB1 (parent)
chain: B2 chain
partner: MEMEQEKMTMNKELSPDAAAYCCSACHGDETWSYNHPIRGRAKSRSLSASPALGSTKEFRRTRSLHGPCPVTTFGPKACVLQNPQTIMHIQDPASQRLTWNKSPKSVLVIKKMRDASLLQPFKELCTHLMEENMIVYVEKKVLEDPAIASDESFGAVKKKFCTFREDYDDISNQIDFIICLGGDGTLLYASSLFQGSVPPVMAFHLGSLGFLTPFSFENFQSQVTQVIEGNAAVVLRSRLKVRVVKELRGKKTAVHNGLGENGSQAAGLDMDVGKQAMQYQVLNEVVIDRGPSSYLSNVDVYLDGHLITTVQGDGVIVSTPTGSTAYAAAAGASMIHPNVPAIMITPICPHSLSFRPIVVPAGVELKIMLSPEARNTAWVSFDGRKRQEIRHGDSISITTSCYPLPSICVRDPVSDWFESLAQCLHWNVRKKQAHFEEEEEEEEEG

Variants of: B1
Conditions: with cep70_human CEP70, Q8NHQ1

| effect of a mutation on the interaction | Variant |
| --- | --- |
| with no effect | R268H |

Variants of: B2
Conditions: with pch2_human TRIP13, Q15645

| effect of a mutation on the interaction | Variant |
| --- | --- |
| disrupting interaction strength | E295K |

Variants of: B3
Conditions: with traf2_human TRAF2, Q12933

| effect of a mutation on the interaction | Variant |
| --- | --- |
| with no effect | S387C |

Variants of: B4
Conditions: with nadk_human NADK

| effect of a mutation on the interaction | Variant |
| --- | --- |
| disrupting interaction strength | E295K |
